According to patent publication US20160185837A1, “GIP AND GLP-1 RECEPTOR DUAL-AGONISTS FOR THE TREATMENT OF DIABETES” (Medimmune Limited, priority 2013, published 2016):
One block for each substance: values may come before it.

Tests used:
Assay in all cases: cell-based or functional assay
[1] = molecular target: mouse GLP-1 receptor (mouse) (UniProt O35659)
rat GLP-1 receptor (rat) = rat GLP-1 receptor (rat) (UniProt P32301)
[2] = molecular target: T1, human GIP receptor (human) (UniProt P48546)
T1 sequence (looked up): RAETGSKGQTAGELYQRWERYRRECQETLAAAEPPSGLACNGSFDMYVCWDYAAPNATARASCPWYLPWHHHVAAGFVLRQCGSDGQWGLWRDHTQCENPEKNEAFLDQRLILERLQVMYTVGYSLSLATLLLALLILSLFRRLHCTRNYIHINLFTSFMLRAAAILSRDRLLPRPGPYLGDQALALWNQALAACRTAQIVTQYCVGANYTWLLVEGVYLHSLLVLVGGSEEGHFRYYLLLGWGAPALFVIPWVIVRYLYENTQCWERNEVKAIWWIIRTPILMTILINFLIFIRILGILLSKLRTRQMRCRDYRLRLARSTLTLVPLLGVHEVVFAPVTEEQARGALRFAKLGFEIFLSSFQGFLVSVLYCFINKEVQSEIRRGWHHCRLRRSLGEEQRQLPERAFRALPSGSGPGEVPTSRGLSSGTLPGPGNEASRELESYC

[3] = molecular target: cynomolgus monkey glucagon receptor (cynomolgus monkey)
[4] = molecular target: cynomolgus monkey GLP-1 receptor (cynomolgus monkey) (UniProt F8V479)
cynomolgus monkey GLP-1 receptor (cynomolgus monkey), sequence (F8V479 entry or part of it): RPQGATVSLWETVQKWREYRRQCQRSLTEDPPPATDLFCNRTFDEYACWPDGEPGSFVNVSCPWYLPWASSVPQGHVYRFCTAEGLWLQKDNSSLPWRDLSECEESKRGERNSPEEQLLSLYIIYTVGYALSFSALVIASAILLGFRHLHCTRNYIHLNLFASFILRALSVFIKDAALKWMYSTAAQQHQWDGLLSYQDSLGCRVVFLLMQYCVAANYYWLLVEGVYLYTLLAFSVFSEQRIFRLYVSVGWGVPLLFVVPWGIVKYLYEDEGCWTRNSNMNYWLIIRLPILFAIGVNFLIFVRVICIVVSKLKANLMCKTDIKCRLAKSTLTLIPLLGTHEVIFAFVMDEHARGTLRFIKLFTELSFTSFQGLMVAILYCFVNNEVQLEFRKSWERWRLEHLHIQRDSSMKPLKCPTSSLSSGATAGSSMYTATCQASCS

rat GLP-1 receptor (rat), sequence (P32301 22-463): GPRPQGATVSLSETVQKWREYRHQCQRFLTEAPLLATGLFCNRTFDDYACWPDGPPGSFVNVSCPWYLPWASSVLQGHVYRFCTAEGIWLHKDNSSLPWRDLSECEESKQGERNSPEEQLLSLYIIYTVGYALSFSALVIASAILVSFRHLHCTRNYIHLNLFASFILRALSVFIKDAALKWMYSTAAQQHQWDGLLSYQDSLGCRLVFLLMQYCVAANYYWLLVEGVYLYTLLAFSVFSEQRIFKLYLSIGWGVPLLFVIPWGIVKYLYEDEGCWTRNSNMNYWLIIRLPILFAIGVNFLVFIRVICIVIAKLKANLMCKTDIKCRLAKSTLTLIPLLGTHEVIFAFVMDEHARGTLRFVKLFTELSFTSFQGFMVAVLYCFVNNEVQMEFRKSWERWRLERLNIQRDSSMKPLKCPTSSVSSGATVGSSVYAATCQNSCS
mouse GLP-1 receptor (mouse), sequence (O35659 22-463): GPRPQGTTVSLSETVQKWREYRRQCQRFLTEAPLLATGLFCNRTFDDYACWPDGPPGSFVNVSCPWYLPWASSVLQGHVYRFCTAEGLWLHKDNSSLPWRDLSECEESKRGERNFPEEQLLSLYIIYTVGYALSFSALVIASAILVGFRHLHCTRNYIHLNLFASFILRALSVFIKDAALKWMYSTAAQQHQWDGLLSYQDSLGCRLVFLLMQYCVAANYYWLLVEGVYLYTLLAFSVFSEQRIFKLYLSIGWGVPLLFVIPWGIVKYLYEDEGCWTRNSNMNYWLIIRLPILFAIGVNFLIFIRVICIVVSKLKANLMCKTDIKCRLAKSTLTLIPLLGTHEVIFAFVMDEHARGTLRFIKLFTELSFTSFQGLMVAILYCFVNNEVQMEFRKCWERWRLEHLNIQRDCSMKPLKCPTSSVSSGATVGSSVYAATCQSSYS

cAMP EC50 [1]: 1.8 nM
cAMP EC50 (rat GLP-1 receptor (rat)): 0.54 nM
Substance: glucagon (from UniProt P01275 53-81) (peptide)

cAMP EC50 [2]: 0.0047 nM
Substance: human GIP (peptide)

cAMP EC50, 4.2% cyno serum albumin [3]: > 1000 nM
cAMP EC50, 4.2% cyno serum albumin [4]: 0.025 nM
Substance: liraglutide (peptide)
